# B1: MBP-UFD (C1040A) (domain or fragment)
# chain: not shown
# notes: UBA1 ubiquitin fold domain (UFD), aa942-1058, with C1040A; also called MBP-UFD with cysteine mutation; source: recombinant
# B2: MBP-UFD (C1039A) (domain or fragment)
# chain: not shown
# notes: UBA1 ubiquitin fold domain (UFD), aa942-1058, with C1039A; also called MBP-UFD with cysteine mutation; source: recombinant
# B3: MBP-UFD (942-1058) (domain or fragment)
# chain: not shown
# notes: UBA1 C-terminal ubiquitin fold domain (UFD), aa942-1058; The pull-down methods name the construct 'AAD-UFD'; also called UFD fragment of UBA1
# Columns and labels:
# [1] = target: T1, recombinant UBE2G2 (UniProt P60604 1-165); assay: pull-down; MBP fusions of UBA1 fragments (5 ug) on beads, treated with AF 1.5 h and washed, then incubated with recombinant E2 2 h at room temperature in 150 mM NaCl, 10 mM Tris/HCl pH 7.4, 1 mM EDTA, 1 mM EGTA, 0.2% NP-40; immunoblot; in Fig. 2a also after iodoacetamide or with DTT; conditions: both partners purified
# T1 construct: UBE2G2, ubiquitin-conjugating enzyme E2 G2, recombinant; Called His-UBE2G2 only in the charging assays; no tag is named for the pull-downs; also called His-UBE2G2; source: bought: R&D Systems (E2-680-100)
# T1 sequence: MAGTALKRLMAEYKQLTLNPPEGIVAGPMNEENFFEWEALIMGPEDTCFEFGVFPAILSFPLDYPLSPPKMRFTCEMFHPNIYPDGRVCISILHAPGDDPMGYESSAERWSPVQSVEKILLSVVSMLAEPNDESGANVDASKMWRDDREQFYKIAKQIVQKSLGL
# [2] = target: T2, recombinant UBE2K (UniProt P61086 1-200); assay: as above; conditions: both partners purified
# T2 construct: UBE2K, ubiquitin-conjugating enzyme E2 K, recombinant; source: bought: R&D Systems (NBP2-35096)
# T2 sequence (looked up): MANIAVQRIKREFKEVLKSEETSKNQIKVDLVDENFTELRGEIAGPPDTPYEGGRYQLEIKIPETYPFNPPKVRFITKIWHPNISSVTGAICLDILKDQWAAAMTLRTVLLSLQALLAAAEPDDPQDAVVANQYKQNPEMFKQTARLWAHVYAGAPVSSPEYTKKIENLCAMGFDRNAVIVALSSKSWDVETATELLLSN
Binder,binding result [1],binding result [2]
B1,binds,–
B2,binds,–
B3,binds,binds

# Source: paper PMC10412574, “Auranofin targets UBA1 and enhances UBA1 activity by facilitating ubiquitin trans-thioesterification to E2 ubiquitin-conjugating enzymes” (Nature Communications, 2023)
